Data published in patent US8389575B2, “Control of enzymatic peracid generation” (E.I. du Pont de Nemours and Company, priority 2008, dated 2013).

Assay: Peracetic acid production by Thermotoga neapolitana perhydrolase, control by bicarbonate buffer concentration
Type: biochemical
Conditions: 100 mM triacetin
Protocol: A cell extract of an E. coli transformant expressing perhydrolase from Thermotoga neapolitana (KLP18/pSW196) was prepared by passing a suspension of cell paste (20 wt % wet cell weight) in 0.05 M potassium phosphate buffer (pH 7.0) containing dithiothreitol (1 mM) twice through a French press having a working pressure of 16,000 psi (˜110 MPa). The crude extract was then centrifuged at 20,000×g to remove cellular debris, producing a clarified cell extract that was assayed for total soluble protein (Bicinchoninic Acid Kit for Protein Determination, Sigma Aldrich catalog #BCA1-KT). The clarified extract was heated for 20 min at 75° C., followed immediately by cooling in an ice/water bath. The resulting mixture was centrifuged to remove precipitated protein, and the supernatant collected and assayed for total soluble protein as before. […] The supernatant was frozen in dry ice and stored at −80° C.
Reactions (10 mL total volume) containing triacetin, hydrogen peroxide and heat-treated, centrifuged cell extract supernatant (prepared as described above) were run at 25° C. using sodium bicarbonate buffer concentrations listed in Tables 7 and 8. A control reaction for each reaction condition was run to determine the concentration of peracetic acid produced by chemical perhydrolysis of triacetin by hydrogen peroxide in the absence of added extract protein. Determination of the concentration of peracetic acid in the reaction mixtures was performed according to the method described by Karst et al., supra. Aliquots (0.040 mL) of the reaction mixture were removed at predetermined times and mixed with 0.960 mL of 5 mM phosphoric acid in water; adjustment of the pH of the diluted sample to less than pH 4 immediately terminated the reaction. The resulting solution was filtered using an ULTRAFREE® MC-filter unit (30,000 Normal Molecular Weight Limit (NMWL), Millipore cat #UFC3LKT 00) by centrifugation for 2 min at 12,000 rpm. An aliquot (0.100 mL) of the resulting filtrate was transferred to L5-mL screw cap HPLC vial (Agilent Technologies, Palo Alto, Calif.; #5182-0715) containing 0.300 mL of deionized water, then 0.100 mL of 20 mM MTS (methyl-p-tolyl-sulfide) in acetonitrile was added, the vials capped, and the contents briefly mixed prior to a 10 min incubation at ca. 25° C. in the absence of light. To each vial was then added 0.400 mL of acetonitrile and 0.100 mL of a solution of triphenylphosphine (TPP, 40 mM) in acetonitrile, the vials re-capped, and the resulting solution mixed and incubated at ca. 25° C. for 30 min in the absence of light. To each vial was then added 0.100 mL of 10 mM N,N-diethyl-m-toluamide (DEET; HPLC external standard) and the resulting solution analyzed by HPLC as described below.
Supelco Discovery C8 column (10-cm×4.0-mm, 5 μm) (cat. #569422-U) w/precolumn Supelco Supelguard Discovery C8 (Sigma-Aldrich; cat #59590-U); 10 microliter injection volume; gradient method with CH3CN (Sigma-Aldrich; #270717) and deionized water at 1.0 mL/min and ambient temperature:
The peracetic acid concentrations produced in 1 min, 5 min and 30 min when using either 250 mM or 100 mM hydrogen peroxide are listed in Table 7 and Table 8, respectively.

B1: Thermotoga neapolitana perhydrolase: acetyl xylan esterase with perhydrolase activity from Thermotoga neapolitana (SEQ ID NO: 14), cell extract of E. coli KLP18/pSW196 (protein, listed as Thermotoga neapolitana)
chain: MAFFDMPLEELKKYRPERYEEKDFDEFWRETLKESEGFPLDPVFEKVDFHLKTVETYDVTFSGYRGQRIKGWLLVPKLAEEKLPCVVQYIGYNGGRGFPHDWLFWPSMGYICFVMDTRGQGSGWMKGDTPDYPEGPVDPQYPGFMTRGILDPGTYYYRRVFVDAVRAVEAAISFPRVDSRKVVVAGGSQGGGIALAVSALSNRVKALLCDVPFLCHFRRAVQLVDTHPYVEITNFLKTHRDKEEIVFRTLSYFDGVNFAARAKVPALFSVGLMDTICPPSTVFAAYNHYAGPKEIRIYPYNNHEGGGSFQAIEQVKFLKRLFEEG
- PAA (ppm), 1 min (NaHCO3 0 mM, initial pH 5.0, 1 min, 100 mM H2O2, 50 μg/mL heated extract total protein): 0 ppm
- PAA (ppm), 1 min (NaHCO3 0 mM, initial pH 5.0, 1 min, 250 mM H2O2, 50 μg/mL heated extract total protein): 161 ppm
- PAA (ppm), 5 min (NaHCO3 0 mM, initial pH 5.0, 5 min, 100 mM H2O2, 50 μg/mL heated extract total protein): 29 ppm
- PAA (ppm), 5 min (NaHCO3 0 mM, initial pH 5.0, 5 min, 250 mM H2O2, 50 μg/mL heated extract total protein): 152 ppm
- PAA (ppm), 30 min (NaHCO3 0 mM, initial pH 5.0, 30 min, 100 mM H2O2, 50 μg/mL heated extract total protein): 11 ppm
- PAA (ppm), 30 min (NaHCO3 0 mM, initial pH 5.0, 30 min, 250 mM H2O2, 50 μg/mL heated extract total protein): 180 ppm
- PAA (ppm), 1 min (NaHCO3 1.0 mM, initial pH 6.0, 1 min, 100 mM H2O2, 50 μg/mL heated extract total protein): 167 ppm
- PAA (ppm), 1 min (NaHCO3 1.0 mM, initial pH 6.0, 1 min, 250 mM H2O2, 50 μg/mL heated extract total protein): 511 ppm
- PAA (ppm), 5 min (NaHCO3 1.0 mM, initial pH 6.0, 5 min, 100 mM H2O2, 50 μg/mL heated extract total protein): 152 ppm
- PAA (ppm), 5 min (NaHCO3 1.0 mM, initial pH 6.0, 5 min, 250 mM H2O2, 50 μg/mL heated extract total protein): 610 ppm
- PAA (ppm), 30 min (NaHCO3 1.0 mM, initial pH 6.0, 30 min, 100 mM H2O2, 50 μg/mL heated extract total protein): 176 ppm
- PAA (ppm), 30 min (NaHCO3 1.0 mM, initial pH 6.0, 30 min, 250 mM H2O2, 50 μg/mL heated extract total protein): 608 ppm
- PAA (ppm), 1 min (NaHCO3 2.5 mM, initial pH 6.5, 1 min, 100 mM H2O2, 50 μg/mL heated extract total protein): 291 ppm
- PAA (ppm), 1 min (NaHCO3 2.5 mM, initial pH 6.5, 1 min, 250 mM H2O2, 50 μg/mL heated extract total protein): 718 ppm
- PAA (ppm), 5 min (NaHCO3 2.5 mM, initial pH 6.5, 5 min, 100 mM H2O2, 50 μg/mL heated extract total protein): 510 ppm
- PAA (ppm), 5 min (NaHCO3 2.5 mM, initial pH 6.5, 5 min, 250 mM H2O2, 50 μg/mL heated extract total protein): 1242 ppm
- PAA (ppm), 30 min (NaHCO3 2.5 mM, initial pH 6.5, 30 min, 100 mM H2O2, 50 μg/mL heated extract total protein): 488 ppm
- PAA (ppm), 30 min (NaHCO3 2.5 mM, initial pH 6.5, 30 min, 250 mM H2O2, 50 μg/mL heated extract total protein): 1179 ppm
- PAA (ppm), 1 min (NaHCO3 5.0 mM, initial pH 6.5, 1 min, 100 mM H2O2, 50 μg/mL heated extract total protein): 377 ppm
- PAA (ppm), 1 min (NaHCO3 5.0 mM, initial pH 6.5, 1 min, 250 mM H2O2, 50 μg/mL heated extract total protein): 866 ppm
- PAA (ppm), 5 min (NaHCO3 5.0 mM, initial pH 6.5, 5 min, 100 mM H2O2, 50 μg/mL heated extract total protein): 955 ppm
- PAA (ppm), 5 min (NaHCO3 5.0 mM, initial pH 6.5, 5 min, 250 mM H2O2, 50 μg/mL heated extract total protein): 1894 ppm
- PAA (ppm), 30 min (NaHCO3 5.0 mM, initial pH 6.5, 30 min, 100 mM H2O2, 50 μg/mL heated extract total protein): 989 ppm
- PAA (ppm), 30 min (NaHCO3 5.0 mM, initial pH 6.5, 30 min, 250 mM H2O2, 50 μg/mL heated extract total protein): 1931 ppm
- PAA (ppm), 1 min (NaHCO3 10 mM, initial pH 7.0, 1 min, 250 mM H2O2, 50 μg/mL heated extract total protein): 1042 ppm
- PAA (ppm), 5 min (NaHCO3 10 mM, initial pH 7.0, 5 min, 250 mM H2O2, 50 μg/mL heated extract total protein): 2334 ppm
- PAA (ppm), 30 min (NaHCO3 10 mM, initial pH 7.0, 30 min, 250 mM H2O2, 50 μg/mL heated extract total protein): 2384 ppm
- PAA (ppm), 1 min (NaHCO3 10 mM, initial pH 8.1, 1 min, 100 mM H2O2, 50 μg/mL heated extract total protein): 418 ppm
- PAA (ppm), 5 min (NaHCO3 10 mM, initial pH 8.1, 5 min, 100 mM H2O2, 50 μg/mL heated extract total protein): 1035 ppm
- PAA (ppm), 30 min (NaHCO3 10 mM, initial pH 8.1, 30 min, 100 mM H2O2, 50 μg/mL heated extract total protein): 1633 ppm
- PAA (ppm), 1 min (NaHCO3 25 mM, initial pH 8.1, 1 min, 100 mM H2O2, 50 μg/mL heated extract total protein): 497 ppm
- PAA (ppm), 1 min (NaHCO3 25 mM, initial pH 8.1, 1 min, 250 mM H2O2, 50 μg/mL heated extract total protein): 1037 ppm
- PAA (ppm), 5 min (NaHCO3 25 mM, initial pH 8.1, 5 min, 100 mM H2O2, 50 μg/mL heated extract total protein): 1319 ppm
- PAA (ppm), 5 min (NaHCO3 25 mM, initial pH 8.1, 5 min, 250 mM H2O2, 50 μg/mL heated extract total protein): 2655 ppm
- PAA (ppm), 30 min (NaHCO3 25 mM, initial pH 8.1, 30 min, 100 mM H2O2, 50 μg/mL heated extract total protein): 2095 ppm
- PAA (ppm), 30 min (NaHCO3 25 mM, initial pH 8.1, 30 min, 250 mM H2O2, 50 μg/mL heated extract total protein): 3503 ppm
